Measurements published in patent US20240245796A1 (PROFOUNDBIO US, published 2024).

How the values were obtained:
[1] = target: T1, rat FOLR1 extracellular domain linked to His tag (rat); assay: BLI, global 1:1 fit (31.3 nM row); all responses below quantification
T1 construct: extracellular domain; Antigen in solution in BLI; also called Rat-Ag

[2] = target: T2, human FOLR3 extracellular domain linked to His tag (human, UniProt P41439 23-245, limits assumed); assay: BLI, global 1:1 fit (15.6 nM row); all responses below quantification
T2 construct: extracellular domain; Antigen in solution in BLI; also called Hu-FRg; not shown: His tag
T2 sequence (P41439 23-245 limits assumed): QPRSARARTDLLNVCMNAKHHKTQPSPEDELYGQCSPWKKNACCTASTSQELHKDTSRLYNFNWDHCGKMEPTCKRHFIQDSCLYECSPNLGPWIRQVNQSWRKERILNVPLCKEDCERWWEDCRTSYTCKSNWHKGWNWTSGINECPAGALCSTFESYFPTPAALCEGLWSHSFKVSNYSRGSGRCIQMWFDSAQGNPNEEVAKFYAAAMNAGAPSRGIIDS

[3] = target: T1, rat FOLR1 extracellular domain linked …; assay: BLI, Ag 15.6 nM; * = below range of quantification
[4] = target: T3, human FOLR2 extracellular domain linked to His tag (human, UniProt P14207 17-230, limits assumed); assay: BLI, global 1:1 fit (125 nM row)
T3 construct: extracellular domain; Antigen in solution in BLI; also called Hu-FRb; not shown: His tag
T3 sequence (P14207 17-230 limits assumed): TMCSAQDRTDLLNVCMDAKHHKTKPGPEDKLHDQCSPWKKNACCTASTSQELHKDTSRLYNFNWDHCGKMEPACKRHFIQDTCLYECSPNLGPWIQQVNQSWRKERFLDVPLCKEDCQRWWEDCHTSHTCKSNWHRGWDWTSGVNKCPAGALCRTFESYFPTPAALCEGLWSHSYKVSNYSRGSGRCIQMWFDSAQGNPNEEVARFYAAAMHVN

[5] = target: T4, human FOLR1 extracellular domain linked to His tag (human, UniProt P15328 25-233, limits assumed); assay: BLI, global 1:1 fit (125 nM row)
T4 construct: extracellular domain; It may be the same product as m13; also called Hu-FRα; Hu-Ag; not shown: His tag
T4 sequence (P15328 25-233 limits assumed): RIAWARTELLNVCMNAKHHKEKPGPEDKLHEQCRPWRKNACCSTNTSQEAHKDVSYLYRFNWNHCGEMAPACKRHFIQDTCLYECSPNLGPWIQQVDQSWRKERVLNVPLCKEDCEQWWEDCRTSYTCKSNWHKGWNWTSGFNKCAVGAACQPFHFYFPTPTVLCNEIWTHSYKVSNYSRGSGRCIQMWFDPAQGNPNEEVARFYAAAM

[6] = target: T5, mouse FOLR1 extracellular domain linked to His tag (mouse, UniProt P35846 25-232, limits assumed); assay: BLI, global 1:1 fit (31.3 nM row); only the 500 nM response quantifiable
T5 construct: extracellular domain; Antigen in solution in BLI; also called Mouse-Ag; not shown: His tag
T5 sequence (P35846 25-232 limits assumed): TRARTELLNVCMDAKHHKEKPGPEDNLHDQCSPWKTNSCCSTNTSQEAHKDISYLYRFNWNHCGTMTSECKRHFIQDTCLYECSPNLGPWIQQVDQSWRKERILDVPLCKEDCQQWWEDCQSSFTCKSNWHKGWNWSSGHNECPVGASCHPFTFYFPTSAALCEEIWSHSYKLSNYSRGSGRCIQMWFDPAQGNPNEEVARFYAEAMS

[7] = target: T6, cynomolgus monkey FOLR1 extracellular domain linked to His tag (cynomolgus monkey, UniProt A0A2K5U044 25-233); assay: BLI, global 1:1 fit (31.3 nM row)
T6 construct: extracellular domain; Antigen in solution in BLI; It may be the same product as m14; also called Cyno-Ag; not shown: His tag
T6 sequence (A0A2K5U044 entry or part of it): as the sequence (P15328 25-233 limits assumed) above, with I2T, W4R, R37K, A146P, H171Y counted along it

[8] = target: T4, human FOLR1 extracellular domain linked …; assay: BLI, global 1:1 fit (31.3 nM row)
[9] = target: T3, human FOLR2 extracellular domain linked …; assay: BLI, Ag 15.6 nM; * = below range of quantification
[10] = target: T2, human FOLR3 extracellular domain linked …; assay: BLI, Ag 15.6 nM; * = below range of quantification
[11] = target: T2, human FOLR3 extracellular domain linked …; assay: BLI, global 1:1 fit (31.3 nM row); all responses below quantification
[12] = target: T6, cynomolgus monkey FOLR1 extracellular …; assay: BLI, global 1:1 fit (250 nM row)
[13] = target: T4, human FOLR1 extracellular domain linked …; assay: BLI, global 1:1 fit (250 nM row)
[14] = target: T3, human FOLR2 extracellular domain linked …; assay: BLI, global 1:1 fit (62.5 nM row)
[15] = target: T1, rat FOLR1 extracellular domain linked …; assay: BLI, global 1:1 fit (15.6 nM row); all responses below quantification
[16] = target: T1, rat FOLR1 extracellular domain linked …; assay: BLI, Ag 31.3 nM; * = below range of quantification
[17] = target: T5, mouse FOLR1 extracellular domain linked …; assay: BLI, global 1:1 fit (125 nM row); only the 500 nM response quantifiable
[18] = target: T6, cynomolgus monkey FOLR1 extracellular …; assay: BLI, global 1:1 fit (7.82 nM row)
[19] = target: T4, human FOLR1 extracellular domain linked …; assay: BLI, global 1:1 fit (7.82 nM row)
[20] = target: T6, cynomolgus monkey FOLR1 extracellular …; assay: BLI, global 1:1 fit (62.5 nM row)
[21] = target: T4, human FOLR1 extracellular domain linked …; assay: BLI, global 1:1 fit (62.5 nM row)
[22] = target: T6, cynomolgus monkey FOLR1 extracellular …; assay: BLI, Ag 62.5 nM over Ab on anti-hIgG Fc tip
[23] = target: T4, human FOLR1 extracellular domain linked …; assay: BLI, Ag 62.5 nM over Ab on anti-hIgG Fc tip

B1: F131 (antibody, V domains shown)
VH: EVQLLESGGGVVQPGRSLRLSCAASGFTFSSYGMHWVRQAPGKGLEWVAVISYDGSNKYYADSVKGRFTISRANSKNTLYLQMNSLRAEDTAVYYCARPRAYYGAYGSSFDYWGQGTQVTVSS
VL: EIVMTQSPSSVSASVGDRVAITCRASQGISSWLAWYQQKPGKAPKLLIYAASSLQSGVPSRFSGSGSGTDFTLTISSLQPEDFATYYCQQSYSTPLTFGGGTKVDIK
notes: also called clone F131; F131 mAb
B1 gave a koff [1] of 1.03 s⁻¹, a kon [1] of 5490 M⁻¹ s⁻¹ and a koff [2] of 0.217 s⁻¹. The kon [2] was 1660 M⁻¹ s⁻¹, the Response [3] was -0.00395 and the Kd [4] was 142 nM. It also gave a koff [4] of 0.0784 s⁻¹, a kon [4] of 552000 M⁻¹ s⁻¹ and a Kd [5] of 5.3 nM. For the same binder, the koff [5] was 0.0012 s⁻¹, the kon [5] was 226000 M⁻¹ s⁻¹ and the Kd [6] was 2960 nM. For the same binder, the koff [6] was 0.301 s⁻¹, the kon [6] was 102000 M⁻¹ s⁻¹ and the Kd [7] was 8.15 nM. The koff [7] was 0.00157 s⁻¹, the kon [7] was 193000 M⁻¹ s⁻¹ and the Kd [8] was 1.53 nM. The koff [8] was 0.000338 s⁻¹, the kon [8] was 221000 M⁻¹ s⁻¹ and the Response [9] was 0.002. For the same binder, the Response [10] was -0.00261, the koff [11] was 0.217 s⁻¹ and the kon [11] was 1660 M⁻¹ s⁻¹. It also gave a Kd [12] of 8.15 nM, a koff [12] of 0.00157 s⁻¹ and a kon [12] of 193000 M⁻¹ s⁻¹. For the same binder, the Kd [13] was 1.53 nM, the koff [13] was 0.000338 s⁻¹ and the kon [13] was 221000 M⁻¹ s⁻¹. The Kd [14] was 142 nM, the koff [14] was 0.0784 s⁻¹ and the kon [14] was 552000 M⁻¹ s⁻¹. For the same binder, the koff [15] was 1.03 s⁻¹, the kon [15] was 5490 M⁻¹ s⁻¹ and the Response [16] was -0.00532. The Kd [17] was 2960 nM, the koff [17] was 0.301 s⁻¹ and the kon [17] was 102000 M⁻¹ s⁻¹. For the same binder, the Kd [18] was 8.15 nM, the koff [18] was 0.00157 s⁻¹ and the kon [18] was 193000 M⁻¹ s⁻¹. For the same binder, the Kd [19] was 1.53 nM, the koff [19] was 0.000338 s⁻¹ and the kon [19] was 221000 M⁻¹ s⁻¹. It also gave a Kd [20] of 8.15 nM, a koff [20] of 0.00157 s⁻¹ and a kon [20] of 193000 M⁻¹ s⁻¹. It also gave a Kd [21] of 1.53 nM, a koff [21] of 0.000338 s⁻¹ and a kon [21] of 221000 M⁻¹ s⁻¹. It also gave a Response [22] of 0.14 and a Response [23] of 0.12.

B2: F131-LD038 (antibody, V domains shown)
VH: B1 VH
VL: B1 VL
modifications: drug-linker LD038 (PB038, maleimide-PEG unit-Val-Cit-PAB-exatecan) on cysteines freed by TCEP reduction; positions not given
notes: Antibody-drug conjugate of F131 (IgG1) with LD038; also called anti-huFOLR-1 conjugate F131-LD038; F131-038
In the case of B2, the koff [1] is reported as 0.224 s⁻¹, the kon [1] is reported as 2.64e+06 M⁻¹ s⁻¹ and the koff [2] is reported as 0.233 s⁻¹. It also gave a Response [3] of -0.00212, a Kd [4] of 84.4 nM and a koff [4] of 0.0813 s⁻¹. It also gave a kon [4] of 963000 M⁻¹ s⁻¹, a Kd [5] of 4.79 nM and a koff [5] of 0.00121 s⁻¹. The kon [5] was 252000 M⁻¹ s⁻¹, the Kd [6] was 2870 nM and the koff [6] was 0.266 s⁻¹. It also gave a kon [6] of 92600 M⁻¹ s⁻¹, a Kd [7] of 8.82 nM and a koff [7] of 0.0016 s⁻¹. The kon [7] was 181000 M⁻¹ s⁻¹, the Kd [8] was 4.8 nM and the koff [8] was 0.00107 s⁻¹. For the same binder, the kon [8] was 224000 M⁻¹ s⁻¹, the Response [9] was 0.0041 and the Response [10] was 0.0084. For the same binder, the koff [11] was 0.233 s⁻¹, the Kd [12] was 8.82 nM and the koff [12] was 0.0016 s⁻¹. For the same binder, the kon [12] was 181000 M⁻¹ s⁻¹, the Kd [13] was 4.8 nM and the koff [13] was 0.00107 s⁻¹. The kon [13] was 224000 M⁻¹ s⁻¹, the Kd [14] was 84.4 nM and the koff [14] was 0.0813 s⁻¹. It also gave a kon [14] of 963000 M⁻¹ s⁻¹, a koff [15] of 0.224 s⁻¹ and a kon [15] of 2.64e+06 M⁻¹ s⁻¹. It also gave a Response [16] of -0.00454, a Kd [17] of 2870 nM and a koff [17] of 0.266 s⁻¹. The kon [17] was 92600 M⁻¹ s⁻¹, the Kd [18] was 8.82 nM and the koff [18] was 0.0016 s⁻¹. It also gave a kon [18] of 181000 M⁻¹ s⁻¹, a Kd [19] of 4.8 nM and a koff [19] of 0.00107 s⁻¹. It also gave a kon [19] of 224000 M⁻¹ s⁻¹, a Kd [20] of 8.82 nM and a koff [20] of 0.0016 s⁻¹. It also gave a kon [20] of 181000 M⁻¹ s⁻¹, a Kd [21] of 4.8 nM and a koff [21] of 0.00107 s⁻¹. The kon [21] was 224000 M⁻¹ s⁻¹, the Response [22] was 0.121 and the Response [23] was 0.129.
